Experimental data from publication PMC10987364.

Columns and labels:
[1] = molecular target: L-rhamnose isomerase (L-RIM) (Chloroflexus sp. origin (hot spring metagenome)); experiment: SEC; Superdex 200 increase 10/300 GL, 50 mM Tris-Cl pH 7.0, 150 mM NaCl, 0.5 mL/min; calibrated with ovalbumin, conalbumin, aldolase and ferritin
[2] = molecular target: L-rhamnose isomerase (L-RIM) (Chloroflexus sp. origin (hot spring metagenome)); experiment: native gel or EMSA; 10% Native PAGE of purified L-RIM, Coomassie stained; native mass against a marker

stoichiometry N [1]: 4 | stoichiometry N [2]: 4
Substance: L-rhamnose isomerase (L-RIM) (enzyme)
